# Measurements taken from PMC11085213, “Plastid Molecular Chaperone HSP90C Interacts with the SecA1 Subunit of Sec Translocase for Thylakoid Protein Transport” (Plants, 2024).
# How the values were obtained:
# [1] = molecular target: His6-tagged mSecA1 (Arabidopsis) (UniProt Q9SYI0)
# [2] = substrate: Nc1ncnc2c1ncn2[C@@H]1O[C@H](COP(=O)(O)OP(=O)(O)OP(=O)(O)O)[C@@H](O)[C@H]1O; test: ATPase, NADH-coupled (pyruvate kinase / lactate dehydrogenase); radicicol-sensitive activity; assay type: biochemical, Arabidopsis thaliana; conditions: pH 7.5, 5 mM MgCl2, 500 mM KCl, HSP90C alone, called ATP binding affinity
# Sequence of His6-tagged mSecA1 (Arabidopsis) (Q9SYI0 73-1022): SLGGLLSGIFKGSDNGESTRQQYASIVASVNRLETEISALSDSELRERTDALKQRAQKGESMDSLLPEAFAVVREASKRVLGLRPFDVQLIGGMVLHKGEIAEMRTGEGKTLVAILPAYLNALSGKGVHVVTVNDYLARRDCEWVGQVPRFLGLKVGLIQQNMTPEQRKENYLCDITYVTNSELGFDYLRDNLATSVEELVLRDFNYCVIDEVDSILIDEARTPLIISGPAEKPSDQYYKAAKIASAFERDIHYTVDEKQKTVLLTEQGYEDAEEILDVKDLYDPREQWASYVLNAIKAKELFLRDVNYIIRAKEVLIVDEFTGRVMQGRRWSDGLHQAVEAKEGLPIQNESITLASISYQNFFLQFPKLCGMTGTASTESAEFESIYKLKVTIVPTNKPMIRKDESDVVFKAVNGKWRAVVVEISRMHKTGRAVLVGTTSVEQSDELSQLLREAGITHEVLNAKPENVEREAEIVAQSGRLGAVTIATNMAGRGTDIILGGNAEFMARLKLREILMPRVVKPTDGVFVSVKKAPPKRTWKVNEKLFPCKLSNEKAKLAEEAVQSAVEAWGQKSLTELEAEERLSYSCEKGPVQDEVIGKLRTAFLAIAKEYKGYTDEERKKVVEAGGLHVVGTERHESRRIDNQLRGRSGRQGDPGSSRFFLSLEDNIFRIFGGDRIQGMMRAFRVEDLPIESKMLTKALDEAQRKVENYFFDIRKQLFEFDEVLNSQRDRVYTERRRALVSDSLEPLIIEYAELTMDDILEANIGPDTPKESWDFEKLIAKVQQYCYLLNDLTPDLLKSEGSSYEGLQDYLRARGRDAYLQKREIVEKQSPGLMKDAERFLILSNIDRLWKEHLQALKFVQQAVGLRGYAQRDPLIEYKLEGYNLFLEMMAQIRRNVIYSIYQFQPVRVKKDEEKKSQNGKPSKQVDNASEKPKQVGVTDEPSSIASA
"combined ATP turnover rate (kcat) of the equimolar mixture SecA1 + HSP90C (1.41 μM each), NADH-coupled assay at 5 mM ATP; sum of the two proteins' own average rates 2.93 min^−1 [1]","rise of the ATP turnover rate of SecA1 + HSP90C + PsbO1 (equimolar) relative to the SecA1 + HSP90C mixture, NADH-coupled assay [1]",Molecule,Km [2]
0.0581 s⁻¹,16%,His6-tagged HSP90C (from UniProt Q9SIF2 61-780) (natural protein),–
–,–,"HSP90C (Arabidopsis thaliana) (protein, His6-tagged HSP90C (pProEX HTb), E. coli BL21(DE3)-pRIL, Ni-NTA and Superdex 200) CDAAVAEKETTEEGSGEKFEYQAEVSRLLDLIVHSLYSHKEVFLRELVSNASDALDKLRFLSVTEPSLLGDGGDLEIRIKPDPDNGTITITDTGIGMTKEELIDCLGTIAQSGTSKFLKALKENKDLGADNGLIGQFGVGFYSAFLVAEKVVVSTKSPKSDKQYVWESVADSSSYLIREETDPDNILRRGTQITLYLREDDKYEFAESTRIKNLVKNYSQFVGFPIYTWQEKSRTIEVEEDEPVKEGEEGEPKKKKTTKTEKYWDWELANETKPLWMRNSKEVEKGEYNEFYKKAFNEFLDPLAHTHFTTEGEVEFRSILYIPGMGPLNNEDVTNPKTKNIRLYVKRVFISDDFDGELFPRYLSFVKGVVDSDDLPLNVSREILQESRIVRIMRKRLIRKTFDMIQEISESENKEDYKKFWENFGRFLKLGCIEDTGNHKRITPLLRFFSSKNEEELTSLDDYIENMGENQKAIYYLATDSLKSAKSAPFLEKLIQKDIEVLYLVEPIDEVAIQNLQTYKEKKFVDISKEDLELGDEDEVKDREAKQEFNLLCDWIKQQLGDKVAKVQVSNRLSSSPCVLVSGKFGWSANMERLMKAQALGDTSSLEFMRGRRILEINPDHPIIKDLNAACKNAPESTEATRVVDLLYDTAIISSGFTPDSPAELGNKIYEMMAMAVGGRWGRVEEEEESSTVNEGDDKSGETEVVEPSEVRAESDPWQD",4.01 mM
